In experiment [1] the target is T1, PlxD1-Fc (human PlexinD1 ECD Met1 to Ala1271 fused to the Fc portion of human IgG1) (human, UniProt Q9Y4D7 47-1271).
T1 construct: range 1-1271; also called PlexinD1 immunoadhesin; soluble PlexinD1; not shown: Fc portion of human IgG1
T1 sequence (looked up): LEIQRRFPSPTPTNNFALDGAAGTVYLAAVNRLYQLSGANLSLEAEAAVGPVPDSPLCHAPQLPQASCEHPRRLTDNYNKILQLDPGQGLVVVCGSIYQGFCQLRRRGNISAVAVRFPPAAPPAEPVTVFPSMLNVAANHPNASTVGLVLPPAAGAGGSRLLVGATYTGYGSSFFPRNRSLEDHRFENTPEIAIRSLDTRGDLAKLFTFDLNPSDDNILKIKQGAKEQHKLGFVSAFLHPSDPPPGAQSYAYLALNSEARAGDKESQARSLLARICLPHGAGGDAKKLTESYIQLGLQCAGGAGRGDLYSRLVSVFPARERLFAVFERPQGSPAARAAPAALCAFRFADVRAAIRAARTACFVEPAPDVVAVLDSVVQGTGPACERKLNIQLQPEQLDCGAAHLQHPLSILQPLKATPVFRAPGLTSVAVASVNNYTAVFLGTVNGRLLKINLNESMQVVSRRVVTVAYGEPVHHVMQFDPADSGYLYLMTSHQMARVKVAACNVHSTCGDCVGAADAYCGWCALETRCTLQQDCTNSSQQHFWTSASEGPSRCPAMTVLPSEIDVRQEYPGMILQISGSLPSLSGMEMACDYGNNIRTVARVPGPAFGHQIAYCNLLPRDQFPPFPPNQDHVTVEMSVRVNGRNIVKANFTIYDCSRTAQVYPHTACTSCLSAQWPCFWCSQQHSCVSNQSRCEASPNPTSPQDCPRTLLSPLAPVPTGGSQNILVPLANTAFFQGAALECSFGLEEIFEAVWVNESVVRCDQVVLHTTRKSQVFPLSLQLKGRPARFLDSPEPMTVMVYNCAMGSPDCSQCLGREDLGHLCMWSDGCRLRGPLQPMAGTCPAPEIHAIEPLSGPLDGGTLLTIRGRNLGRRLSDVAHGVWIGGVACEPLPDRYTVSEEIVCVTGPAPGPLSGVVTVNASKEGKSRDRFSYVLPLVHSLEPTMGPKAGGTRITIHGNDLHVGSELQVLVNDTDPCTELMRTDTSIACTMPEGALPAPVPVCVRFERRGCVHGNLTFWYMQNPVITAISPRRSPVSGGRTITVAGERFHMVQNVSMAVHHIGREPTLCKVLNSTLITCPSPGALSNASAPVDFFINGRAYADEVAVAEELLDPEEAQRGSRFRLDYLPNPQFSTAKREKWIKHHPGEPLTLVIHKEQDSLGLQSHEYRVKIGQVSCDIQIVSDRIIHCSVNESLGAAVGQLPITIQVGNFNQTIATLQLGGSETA
Put plainly: SPR (Biacore 3000, 25 C); PlxD1-Fc amine-coupled on CM5 chip, Sema3E^SD-His as analyte; one-to-one model; SPR, 25 C; PlxD1-Fc on the chip, His-tagged Sema3E^SD as analyte. On the procedure:
Binding experiments were performed by SPR measurements on a Biacore 3000 instrument (Biacore Inc.) at 25° C. PlxD1-Fc constructed as described in Example 1 was immobilized at high surface density (˜10,000 RU) on an activated CM5 chip using standard amine coupling procedures as described by the manufacturer. PlxD1-Fc was injected at a concentration of 10 μg/ml in 20 mM sodium acetate, pH 4.5 and at a flow rate of 5 μl/min until desired surface densities, measured in response units (RU), were reached. Unreacted groups were blocked by injecting 1 M ethanolamine. To perform binding assays, different concentrations of Sema3E^SD-His were injected in 10 mM HEPES pH 7.4, 150 mM NaCl, 0.005% v/v Surfactant P20, at a flow rate of 5 μl/min. Blank surfaces were used for background corrections. Injections of 10 mM glycine, pH 3.0 at 100 μl/min for 1 min were used to regenerate surfaces between two binding experiments. Kinetic analysis was performed with binding sensorgrams of different analyte concentrations using the BIAevaluation Software (Biacore Inc.). An one-to-one binding model was used to fit the experimental data for association and dissociation reactions. Dissociation constants were calculated from the on and off rates. […] Radioligand cell binding assays were performed and the dissociation constant for Sema3E^SD-Fc binding to HUVECs was calculated to 4 nM.

For experiment [2], the target named is T2, human PlexinD1 expressed on human umbilical vein endothelial cells (HUVECs) (human, UniProt Q9Y4D7 47-1925).
T2 construct: whole, on cells; Endogenous receptor on primary cells; also called native PlexinD1
Put plainly: radioligand cell binding assay on HUVECs; radioligand binding on HUVECs (endogenous human PlexinD1); Fc fusion, not His.

For experiment [3], the target named is T3, murine PlexinD1 expressed on mouse microvascular endothelial (MS1) cells (mouse, UniProt Q3UH93 49-1925).
T3 construct: whole, on cells; Endogenous receptor on a cell line
Put plainly: FACS on MS1 cells.

B1: Sema3E^SD-His (human Semaphorin 3E Ala26 to Arg560 of SEQ ID NO: 1 with an N-terminal Histidine tag) (ligand, not shown: small tags and cut ends)
chain: ADTTHPRLRLSHKELLNLNRTSIFHSPFGFLDLHTMLLDEYQERLFVGGRDLVYSLSLERISDGYKEIHWPSTALKMEECIMKGKDAGECANYVRVLHHYNRTHLLTCGTGAFDPVCAFIRVGYHLEDPLFHLESPRSERGRGRCPFDPSSSFISTLIGSELFAGLYSDYWSRDAAIFRSMGRLAHIRTEHDDERLLKEPKFVGSYMIPDNEDRDDNKVYFFFTEKALEAENNAHAIYTRVGRLCVNDVGGQRILVNKWSTFLKARLVCSVPGMNGIDTYFDELEDVFLLPTRDHKNPVIFGLFNTTSNIFRGHAICVYHMSSIRAAFNGPYAHKEGPEYHWSVYEGKVPYPRPGSCASKVNGGRYGTTKDYPDDAIRFARSHPLMYQAIKPAHKKPILVKTDGKYNLKQIAVDRVEAEDGQYDVLFIGTDNGIVLKVITIYNQEMESMEEVILEELQIFKDPVPIISMEISSKRQQLYIGSASAVAQVRFHHCDMYGSACADCCLARDPYCAWDGISCSRYYPTGTHAKRRFRR
notes: Produced by transient transfection of CHO cells; also called His-tagged Sema3E^SD; soluble Sema3E sema domain construct
Turning to B1, the Kd – broadly, the concentration at which binding is half-saturated – in experiment [1] came out at 24 nM.

B2: Sema3E^SD-Fc (human Semaphorin 3E Met1 to Ala554 of SEQ ID NO: 1 with the Fc portion of human IgG1 as C-terminal fusion partner) (Fc fusion)
chain: ADTTHPRLRLSHKELLNLNRTSIFHSPFGFLDLHTMLLDEYQERLFVGGRDLVYSLSLERISDGYKEIHWPSTALKMEECIMKGKDAGECANYVRVLHHYNRTHLLTCGTGAFDPVCAFIRVGYHLEDPLFHLESPRSERGRGRCPFDPSSSFISTLIGSELFAGLYSDYWSRDAAIFRSMGRLAHIRTEHDDERLLKEPKFVGSYMIPDNEDRDDNKVYFFFTEKALEAENNAHAIYTRVGRLCVNDVGGQRILVNKWSTFLKARLVCSVPGMNGIDTYFDELEDVFLLPTRDHKNPVIFGLFNTTSNIFRGHAICVYHMSSIRAAFNGPYAHKEGPEYHWSVYEGKVPYPRPGSCASKVNGGRYGTTKDYPDDAIRFARSHPLMYQAIKPAHKKPILVKTDGKYNLKQIAVDRVEAEDGQYDVLFIGTDNGIVLKVITIYNQEMESMEEVILEELQIFKDPVPIISMEISSKRQQLYIGSASAVAQVRFHHCDMYGSACADCCLARDPYCAWDGISCSRYYPTGTHA
notes: The construct as cloned starts at Met1; also called Sema3E^SD-Fc immunoadhesin; not shown: Fc portion of human IgG1
As for B2, in experiment [2], the Kd was found to be 4 nM. Moreover, the binding result in experiment [3] is on record as “binds”.
